Assays:
[1] = system: cynomolgus monkey whole blood stimulated with CpG-A; assay: TNF-α after in vitro CpG-A stimulation of whole blood of dosed cynomolgus monkeys; type: in vivo; conditions: 10 mg/kg i.v.; CpGA-stimulated whole blood
Protocol: Cytokine expression was detected by whole blood stimulation in vitro.
The cells were cultured at 37° C. for 18 h, and the supernatant was collected. The TNF-α and IFN-α concentration levels in the supernatant were detected using an ELISA kit.
TNF-α concentration assay was performed using a R&D Primate TNF-α DuoSet ELISA kit (Cat. No. DY1070). 50 μL of serially diluted cytokine standard was added to each standard well, 50 μL of test sample was added to each sample well, and 50 μL of PBS was added to each blank control well. The cells were incubated at 37° C. for 2 h. The plate was washed 3 times: the liquid in each well was removed, and 300 μL of 1× PBST buffer working solution was added to each well; and after 1 minute of residence, the liquid in each well was discarded. 100 μL of detection antibody working solution was added to each well, and the cells were incubated at 37° C. for 1 h. […] The reading at wavelength 450 nm was detected using a Molecular device spectra max plus384 instrument within 10 min after the reaction was stopped.
Evaluation criteria in FIGS. 12-13: the average expression level changes of IFNα/TNFα were evaluated after in vitro stimulation of the whole blood with CpGA at 200 μg/mL on days 0-33 after administration. […]

[2] = system: pDCs in the peripheral blood of cynomolgus monkeys; assay: pDC percentage and BDCA2 expression level on pDCs in peripheral blood of dosed cynomolgus monkeys by FACS; conditions: 10 mg/kg intravenous
Protocol: Nine female cynomolgus monkeys were divided into 3 groups, 3 cynomolgus monkeys per group.
The pDC percentage in the peripheral blood and the BDCA2 expression level on the surface of pDCs were detected by FACS.
Venous blood of the cynomolgus monkeys was collected by using a heparin anticoagulation tube, 6 mL of red blood cell lysis buffer was added to 300 μL of the blood, and the resulting mixture was placed at room temperature for 10 min. The cells were collected by centrifugation at 400 g for 5 min at room temperature. The cells were washed with PBS and resuspended in 100 μL of cell staining buffer (PBS+1% FBS). 5 μL of Fc Block was added to the cell suspension and left to stand at 4° C. for 10 min. […] The cells were washed twice with PBS, resuspended in 200 μL of the cell staining buffer, and analyzed by using a flow cytometer.

[3] = biological target: T1, recombinant Human BDCA2 (Homo sapiens, UniProt Q8WTT0); assay: Affinity assay of humanized antibodies by BIAcore (SPR); conditions: 1:1 binding model
T1 construct: extracellular domain (Asn45-Ile213) of human BDCA2 (hBDCA2); human IgG1 Fc (fused via a linker) (N); made in house; host or cells: 293E
T1 sequence (Q8WTT0 45-213): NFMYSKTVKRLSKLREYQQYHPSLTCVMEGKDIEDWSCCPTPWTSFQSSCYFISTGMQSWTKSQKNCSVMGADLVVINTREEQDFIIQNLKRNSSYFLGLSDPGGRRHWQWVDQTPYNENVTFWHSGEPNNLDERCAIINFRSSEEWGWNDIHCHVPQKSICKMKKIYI
Protocol: The humanized antibodies of the present disclosure were assayed for affinity by the BIAcore experiment. The surface of a CM5 chip channel was activated with 50 mM NHS and 200 mM EDC (NHS and EDC from an amino coupling kit) mixed in a ratio of 1:1, and the anti-human IgG (Fc) antibody (diluted with a sodium acetate solution at pH 5.0, the concentration was 25 μg/mL) was injected for 420 s. Then 1 M ethanolamine was injected at a flow rate of 10 μL/min for 420 s to block excess active carboxyl groups on the chip. The humanized antibody was diluted to 1 μg/mL using a running buffer and injected into a detection channel flow cell at a flow rate of 10 μL/min. The sample injection was performed for 60 s for capture. The recombinant Human BDCA2 was diluted to 50 nM or 100 nM with 1× HBS-EP+ (pH 7.4), and diluted in a gradient of 1:2 to 0.39 nM. The test samples hBDCA2 at these concentration gradients were separately injected into the detection channel at a flow rate of 30 μL/min, wherein 2 samples at the concentration of 0 were used for removing background signals. The times for the antibody-antigen binding and dissociation were 180 s and 400 s, respectively. […] After subtraction of the signals from the reference channel (flow cell 1) and 0 concentration, a 1:1 binding model was selected for curve fitting, and kinetic parameters calculated.

Substance: BIIB059: reference antibody specifically binding to BDCA2, sequence derived from U.S. Pat. No. 9,902,775B2; SEQ ID NO: 25 and 26 [reference compound]
- TNFα expression level compared to the blank control group [1]: no significant change
- BDCA2 level on the surface of pDCs in the blood compared to the blank control [2]: reduced
- pDC percentage in the blood compared to the blank control [2]: no significant change
- ka [3]: 167000 M⁻¹ s⁻¹
- kd [3]: 0.000179 s⁻¹

From US20260216362A1, “ANTI-BDCA2 ANTIBODY-DRUG CONJUGATE AND USE THEREOF” (DUALITY BIOLOGICS (SHANGHAI) CO., LTD., priority 2022, published 2026)
